From patent US20260183393A1, “IMMUNOSUPPRESSANT-RESISTANT MODIFIED ALLOGENEIC MODIFIED IMMUNE CELLS AND METHODS FOR USE THEREOF” (Beam Therapeutics Inc., priority 2023, published 2026)
Entries after “also recorded” stand apart in the source; their conditions may differ.

What was measured:
FKBP1A polynucleotide = assay: Base editing of FKBP1A in primary human T cells, next-generation sequencing; format: cell-based; settings: ABE8.20m mRNA and sgRNA electroporated into activated primary human T cells; NGS
Text: FIG. 3 provides a bar graph showing maximum A to G and C to T base editing within an FKBP1A polynucleotide achieved using base editor systems containing one of the guide polynucleotides indicated along the x-axis (see Table 1 for nucleotide sequences) and either an adenosine deaminase base editor (ABE) or a cytidine deaminase base editor (CBE), as indicated. The ABE was ABE8.20m and the CBE was rBE4. Primary human T cells were thawed and activated in vitro using an anti-CD3/CD28/CD2 reagent. On day 2 following contacting with the reagent, the T cells were washed and resuspended in P3 Buffer (Lonza) and plated in 96-well electroporation plates containing 2 μg ABE8.20m or rBE4 (CBE) and 2 μg of the indicated guide polynucleotide targeting the FKBP1A (FKBP prolyl isomerase 1A) polynucleotide. Plates were electroporated using a DH-102 setting on a Lonza Nucleofector™ 96-well plate unit. The electroporated cells were incubated for 3 days. […]
Healthy donor adult human leukopaks were commercially obtained from HemaCare (Charles River). […] Two-days post-activation, T cells were counted, washed with sterile PBS (Gibco) and resuspended in P3 buffer (Lonza) at 10^7 cells mL^−1. […]

FKBP1A protein = assay: Western blot of FKBP1A protein in edited T cells; format: cell-based, human; settings: T cells edited with ABE8.20m and TSBT×1538 sgRNA
Procedure: Primary human T cells were activated with anti-CD3/CD28/CD2 reagent. On day 2 following contacting with the reagent, the T cells were contacted with the TSBT×1538 sgRNA and ABE8.20m and subsequently incubated for approximately 5 days. Unedited cells were used as a negative control. Following the approximately 5-day incubation, the cells were harvested and cell-associated protein was extracted to be evaluated in the Western blot analysis. Protein samples from the edited and unedited cells were contacted with a rabbit anti-FKBP1A or mouse anti-GAPDH (control used to normalize protein concentrations) antibodies, followed by staining with secondary anti-rabbit (HRP) and anti-mouse (NIR) antibodies, respectively. Protein was analyzed using the Jess automated Western blot analysis device available from ProteinSimple.

19CAR-T cells = assay: CAR-T cell proliferation assay; format: cell-based, human; settings: 100 nM rapamycin
Text: Primary human T cells were activated using an anti-CD3/CD28/CD2 reagent. Two-days after being contacted with the reagent, the T cells were edited using a base editor system containing the guide polynucleotide TSBT×1538 and the base editor ABE8.20m using electroporation, as described above. Following electroporation, both the T cells were transduced with a lentiviral vector encoding an anti-CD19 CAR (19CAR) and allowed to expand in culture for approximately 7 days before being cryopreserved for later analysis. Unedited anti-CD19 CAR-T cells were prepared as a negative control. The 19CAR-T cells were then thawed from cryopreservation and rested overnight before being stimulated using dynabeads coated with recombinant human CD19 protein-coated at a bead-to-cell ratio of 1:1. The T cells were cultured in the presence of 100 nM of the immunosuppressant rapamycin or dimethylsulfoxide (DMSO) as a control for 6 days. The total number of T cells were enumerated using a NucleoCounter NC-200™ automated cell counter.
Primary human T cells were activated using an anti-CD3/CD28/CD2 reagent. Two days after being contacted with the reagent, the T cells were edited using a base editor system containing the guide polynucleotide TSBT×1538 and the base editor ABE8.20m using the electroporation protocol described above. Both edited and unedited T cells were transduced with a lentiviral vector encoding an anti-CD19 CAR (19CAR) and allowed to expand in culture for approximately 7 days before being cryopreserved for later analysis. Unedited 19CAR-T cells were used as a control. For analysis, the 19CAR-T cells were thawed and rested for 72 hours before labeling using a CellTrace™ Far Red (CTFR) dye. After CTFR labeling, the 19CAR-T cells were stimulated using an Immunocult™ Human CD3/CD28/CD2 universal T cell activator in the presence of 100 nM of the immunosuppressant agent rapamycin or in the presence of DMSO (control) and allowed to incubate for an additional 3 days. Following the three-day incubation, the T cells were analyzed using flow cytometry to measure dilution of CTFR dye as an indicator of cell proliferation.
The following day, T cells were washed, counted and 1×10^4 cells were seeded in triplicate into a 96-well flat bottom plate alone or with 1×10^4 JeKo-1.GFP^+ tumor cells. […] On day 7, samples were analyzed by flow cytometry and 19CAR-T cells were enumerated using CountBright Counting Beads (Thermo Fisher Scientific) following the manufacturer's protocol.

B1: TSBT×1538: guide polynucleotide targeting FKBP1A, SEQ ID NO: 501 (nucleic acid)
guide: CTCACCGTCTCCTGGGGAGAGTTTTAGAGCTAGAAATAGCAAGTTAAAATAAGGCTAGTCCGTTATCAACTTGAAAAAGTGGCACCGAGTCGGTGCTTTT
modifications: chemistry not given here
mean on-target genomic editing efficiency (FKBP1A polynucleotide): 93.7% | FKBP1A protein expression (FKBP1A protein): knock-out of FKBP1A protein expression; also recorded: reduced protein expression | cell proliferation in response to a universal T cell activator (19CAR-T cells; 19CAR-T cells edited with ABE8.20m and the guide, 3 days, CTFR dilution): improved cell proliferation | proliferation in the presence of rapamycin (19CAR-T cells; anti-CD19 CAR-T cells edited with ABE8.20m and the guide, CD19-coated dynabeads 1:1, 6 days): improved proliferation
